In PMC3861479, “LipL41, a Hemin Binding Protein from Leptospira santarosai serovar Shermani” (PLoS ONE, 2013):
Where a chain is given by its changes, count along the chain named. Names may count otherwise.

B1: LipL41 C140A/C220A (natural protein)
chain: AATVDVEYPVFPKDKEGRALQKFLGTIRNVGLAVEPPKKSLWEAIFGEGSSFIDQMPSKVFEAFDKESYYKLTDLSKRADILNEATLSLTGITKSRAKIGNLIGAEAILYIGYQKPYTEASTENKIDAVAAGIKVAGFVASAATGKDVNTGNDPVSKPTGVRMMLIPLDATLIKVETGEVKKAVVSSPAKIFNSVGNLEAPSILDSFGQGLDEAAAYIKGRLSPIVKTERIKVFVKDEDEEVKELLQEGYEEIVGETPSFKKAKEAWEKADKKAKGQSWGAKANLATYYFSIGDFEKSIKLYEEAMKLKDADKSYLRELRKRVEATFAVDESNAK
notes: also called cysteine double mutant; HRM-mutated LipL41; source: E. coli, expression and purification similar to that of the wildtype
B2: recombinant LipL41 (Ala21 - Lys355) with an N-terminal His6-tag (natural protein)
chain: B1 chain with A120C, A200C
notes: also called LipL41 wildtype; pRSET-LipL41; source: E. coli BL21(DE3), purified (Ni-NTA); copies: 36
B3: LipL41-C100 with a TPR-containing fragment of residues 256-355 (domain or fragment)
chain: KDEDEEVKELLQEGYEEIVGETPSFKKAKEAWEKADKKAKGQSWGAKANLATYYFSIGDFEKSIKLYEEAMKLKDADKSYLRELRKRVEATFAVDESNAK
notes: source: E. coli, expression and purification similar to that of the wildtype
B4: LipL41 C140A (natural protein)
chain: B1 chain with A200C
notes: also called HRM-mutated LipL41; source: E. coli, expression and purification similar to that of the wildtype
B5: LipL41 C220A (natural protein)
chain: B1 chain with A120C
notes: as for B4

What was measured:
[1] = molecular target: the molecule itself; assay: negative-stain transmission electron microscopy; 0.1 mg/ml LipL41 on a glow-discharged copper grid, 2% uranyl acetate; class averages with EMAN2
[2] = molecular target: the molecule itself; assay: SEC + AUC; LipL41-C100 in solution; data not shown

| Protein | binding result [1] | other results |
| --- | --- | --- |
| B1 | binds |  |
| B2 |  | stoichiometry N [1]: 36 |
| B3 |  | stoichiometry N [2]: 2 |
| B4 | binds |  |
| B5 | binds |  |
